How the values were obtained:
[1] = Phase transition temperature by optical density (UV-Vis, 350 nm) versus temperature; type: physicochemical; settings: 25 μM; Table 5
Procedure: The temperature with the maximum positive slope was defined as the phase transition temperature for each condition. (FIG. 2B) The concentration-temperature phase diagram was determined for both ELPs, and fit to the following equation: Tt=b−m Log10[CELP].
Both ELPs at different concentrations (5 μM to 100 μM) were subject to a precisely controlled temperature increase from 25 to 75° C. at a rate of 1° C./min. The Tt of ELPs is defined as the temperature at which the first derivative of the optical density with respect to the temperature reaches a maximum.

[2] = ATRA encapsulation in 4PA, two phase method, HPLC; type: physicochemical; settings: theoretical maximum 4
Excerpt: FIG. 21: SDS PAGE was used to resolve the purified 4PA fusion protein. To formulate ATRA-loaded 4PA, a two phase encapsulation method was adopted. After removing undissolved drug, HPLC was used to quantify 4PA and ATRA concentrations. Encapsulation ratio, defined as CATRA/C4PA was 2.7, theoretical maximum being 4.

[3] = system: HR+/HER2− breast cancer patients; settings: in combination with exemestane; cited from earlier work
BT-474 orthotopic tumors = experiment: Orthotopic BT-474 tumors in nude mice; type: in vivo; settings: 1 mg/kg every other day for 4 weeks
Excerpt: FIGS. 25A-25B: show results of administration of FAF formulations when tested for efficacy and safety in nude mice bearing orthotopic tumors of BT-474 cell line. Oral Eve at the same drug dose served as a clinically relevant control.
Accounting for nearly 40,000 deaths per year, breast cancer is the second deadliest cancer affecting American women. Everolimus (Eve), an analog of Rapamycin is approved to treat HR+/HER2− subtype in combination with exemestane. Currently administered as an oral formulation, Eve suffers from poor physico-chemical properties and toxicity issues like Rapamycin. Novel FAF formulations were tested for efficacy and safety in nude mice bearing orthotopic tumors of BT-474 cell line. Being a HR+ cell line, BT-474 represents nearly 80% of clinically diagnosed breast cancer. Oral Eve at the same drug dose served as a clinically relevant control. […] This is presumably a result of Eve's poor oral bioavailability.

male NOD mice = experiment: Lymphocytic infiltration of the lacrimal gland in male NOD mice (Sjögren's syndrome model); type: in vivo; settings: SC 1.0 mg Rapa/kg every other day for 2 weeks
Procedure: FIGS. 23A-23C: FAF-Rapa reduces lymphocytic infiltration in the LG of male NOD mice, FIG. 23A: identity, purity and fluorescence of FAF, FAF-Rapa and rhodamine-labeled FAF-Rapa (Rho-FAF-Rapa) were analyzed by Comassie blue staining and fluorescence imaging of SDS-PAGE. FIG. 23B: One LG from each mouse was collected at the conclusion of the study. Sections from 25th, 50th and 75th percentile sections from each LG were quantified by a blinded observer to determine the average percentage area of infiltrate per gland. Glands from 4 treatment groups (n=15) were compared. Inflamed LG show areas of purple nuclear staining, which indicate foci of infiltrating lymphocytes (outlined in blue). Severe lymphocytic infiltration was reduced by FAF-Rapa (middle panel). Scale bar represents 200 μm. FIG. 23C: The percent area of infiltration was calculated using ImageJ (mean±SD). A Kruskal-Wallis non-parametric test was used to compare groups.
SS is a chronic autoimmune disease that affects about 4 million people in the US. Lymphocytic infiltration and inflammation in the exocrine glands, mainly lacrimal gland (LG) and salivary gland causes severe forms of dry eyes and dry mouth. […] Following this, the LG from all mice were sectioned, stained and lymphocytic infiltration was quantified.

MDA-MB-468 cell line = experiment: Cellular uptake of FAF; type: cell-based; settings: concentrations up to 100 μM
MDA-MB-468 cells = experiment: Split luciferase reporter for cytosolic Rapa; type: cell-based
Excerpt: FIGS. 22A-22B: FAF delays the access of Rapa to the cytosol in a manner consistent with macropinocytosis. FIG. 22A: MDA-VB-468 cells were transfected with a split luciferase reporter that enables the specific detection of Rapa within the cytosol. […] Free Rapa luminescence kinetics were unaffected by amiloride. (Mean±95% CI, n=6).
To understand drug release, cells were engineered to express a luciferase reporter for cytosolic Rapamycin. […] This is evidence that FAF dominates the intracellular delivery of rapalogues.

Compound: 4PA: 4 Pin1 domains linked by ELP A24, SEQ ID NO: 15
- Transition temperature at 25 μM [1]: 52.8 °C
- Encapsulation ratio, CATRA/C4PA [2]: 2.7

Compound: CO[C@H]1C[C@@H]2CC[C@@H](C)[C@@](O)(O2)C(=O)C(=O)N2CCCC[C@H]2C(=O)O[C@H]([C@H](C)C[C@@H]2CC[C@@H](OCCO)[C@H](OC)C2)CC(=O)[C@H](C)/C=C(\C)[C@@H](O)[C@@H](OC)C(=O)[C@H](C)C[C@H](C)/C=C/C=C/C=C/1C [Eve, Everolimus]
- patients with adverse events necessitating discontinuation of treatment [3]: 10 % of patients
- patients with adverse events necessitating dose reduction [3]: 75 % of patients
- tumor growth compared to PBS treated mice (BT-474 orthotopic tumors): not statistically significant

Compound: CO[C@H]1C[C@@H]2CC[C@@H](C)[C@@](O)(O2)C(=O)C(=O)N2CCCC[C@H]2C(=O)O[C@H]([C@H](C)C[C@@H]2CC[C@@H](O)[C@H](OC)C2)CC(=O)[C@H](C)/C=C(\C)[C@@H](O)[C@@H](OC)C(=O)[C@H](C)C[C@H](C)/C=C/C=C/C=C/1C [Rapa, Rapamycin]
- suppression of lymphocytic infiltration compared to vehicle (male NOD mice): 2.7 fold

Compound: FAF: FKBP fused to each terminus of ELP A192, SEQ ID NO: 25
- Transition temperature at 25 μM [1]: 55.1 °C
- saturation of cellular uptake (MDA-MB-468 cell line): no dose-dependent saturation
- delay of cytosolic access of Rapa versus free drug (MDA-MB-468 cells): about a half-hour
- effect of amiloride on cytosolic detection of Rapa (MDA-MB-468 cells; macropinocytosis inhibitor amiloride added): completely suppressed
- MAT (SC, Non-compartment): 9.6 h
- elimination half-life (mouse, in vivo, iv): about 7 hrs
- MRT (mouse, in vivo, sc): 20.3 h
- Tmax (mouse, in vivo, sc): 12 h

From patent US11464867B2, “Multimeric elastin-like polypeptides” (University of Southern California, priority 2018, dated 2022)
